One series addresses CREB (TNT-CREB) (UniProt P16220 1-327). As to the kind of experiment: EMSA; specific; 40 mM Hepes pH 7.9, 75 mM KCl, 0.2 mM EDTA, 0.5 mM DTT, 150 ng/ul poly(dI-dC), 5% Ficoll, room temperature, 30 min; 7 ug TNT protein; competitor 100-fold or 50-fold (Methods). The note with it: protein: ivt; chain copies: 2; label: 32P; blunt. On the technique in general: In EMSA bound probe runs differently from free probe, usually more slowly.

The target of a further series is Smad3 (TNT-Smad3) (UniProt P84022 1-425). Described as above. The note with it: protein: ivt; label: 32P; blunt.
Sequence of Smad3 (TNT-Smad3) (P84022 whole entry): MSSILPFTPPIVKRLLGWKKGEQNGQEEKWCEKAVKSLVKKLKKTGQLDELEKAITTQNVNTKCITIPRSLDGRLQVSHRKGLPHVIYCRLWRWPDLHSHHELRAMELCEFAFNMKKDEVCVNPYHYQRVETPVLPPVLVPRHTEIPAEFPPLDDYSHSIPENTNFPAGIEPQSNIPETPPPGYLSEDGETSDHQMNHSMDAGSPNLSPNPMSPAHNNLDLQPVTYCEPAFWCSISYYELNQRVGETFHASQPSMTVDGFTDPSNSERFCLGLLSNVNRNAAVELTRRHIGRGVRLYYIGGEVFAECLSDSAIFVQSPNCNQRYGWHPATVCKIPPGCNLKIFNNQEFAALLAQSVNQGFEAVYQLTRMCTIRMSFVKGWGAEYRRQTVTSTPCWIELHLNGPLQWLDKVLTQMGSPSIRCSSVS

Sequence of CREB (TNT-CREB) (P16220 whole entry): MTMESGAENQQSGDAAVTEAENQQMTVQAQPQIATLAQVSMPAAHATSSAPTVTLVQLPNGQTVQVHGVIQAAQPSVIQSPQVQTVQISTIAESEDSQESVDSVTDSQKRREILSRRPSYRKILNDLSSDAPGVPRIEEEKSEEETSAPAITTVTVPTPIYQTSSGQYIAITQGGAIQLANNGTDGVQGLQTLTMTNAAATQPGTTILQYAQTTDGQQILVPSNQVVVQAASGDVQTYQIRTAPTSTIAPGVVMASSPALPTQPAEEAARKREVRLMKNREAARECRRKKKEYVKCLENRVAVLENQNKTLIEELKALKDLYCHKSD

B1: Sox9 promoter CRE (dsDNA)
DNA 1: CCTCGAGTCTCGTCACCCA
DNA 2: TGGGTGACGAGACTCGAGG
In the case of B1, the binding result in the series with CREB (TNT-CREB) is listed as “binds”.

B2: Sox9 promoter Smad site (dsDNA)
DNA 1: CTCGGAACTGTCTGGAAACTTCAG
DNA 2: CTGAAGTTTCCAGACAGTTCCGAG
Consider B2, for which the binding result in the series with Smad3 (TNT-Smad3) is listed as “binds”.

For the origin of these results see PMC8828901, “Sox9 is involved in the thyroid differentiation program and is regulated by crosstalk between TSH, TGFβ and thyroid transcription factors”.
